{"source": "paper PMC8729259", "about": "(RSC Chemical Biology, 2021)", "binders": {"B1": {"name": "SARS-CoV-2 non-structural protein 10 (nsp10), full-length, without affinity tag (natural protein)", "chain": "AGNATEVPANSTVLSFCAFAVDAAKAYKDYLASGGQPITNCVKMLCTHTGTGQAITVTPEANMDQESFGGASCCLYCRCHIDHPNPKGFCDLKGKYVQIPTTCANDPVGFTLKNTVCTVCGMWKGYGCSCDQLREPMLQ"}}, "molecular_target": "T1, His-SUMO-tagged SARS-CoV-2 nsp14 N-terminal ExoN domain (residues 1 to 289) (SARS-CoV-2)", "T1 chain": "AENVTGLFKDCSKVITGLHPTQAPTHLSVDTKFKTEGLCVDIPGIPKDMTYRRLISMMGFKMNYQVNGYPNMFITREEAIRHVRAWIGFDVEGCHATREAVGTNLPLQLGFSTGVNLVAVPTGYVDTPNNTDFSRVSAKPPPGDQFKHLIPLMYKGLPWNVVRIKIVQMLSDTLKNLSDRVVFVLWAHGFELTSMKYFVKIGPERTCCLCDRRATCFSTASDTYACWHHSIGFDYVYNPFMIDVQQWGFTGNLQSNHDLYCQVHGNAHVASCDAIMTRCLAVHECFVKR", "test": "MST", "conditions": "both partners purified"}
{"binder": "B1", "values": [{"measurement": "Kd", "result": "900 ± 300", "unit": "nM"}]}
